Assay results published in article PMC9639781.

Biological target: ATP synthase (endogenous, mouse cardiomyocytes) (mouse (endogenous in mouse neonatal cardiomyocytes)) (UniProt P56480)
Assay: native gel or EMSA

In the case of “ATP synthase (endogenous, mouse cardiomyocytes) (from UniProt P56480 47-529; Q9DCX2 1-161; Q9DB20 24-213; Q9CQQ7 43-256) (complex)”, the stoichiometry N was 2.
